# Results published in IntAct's records for PubMed 16183855.
# B1: Caspase-8 (Homo sapiens), Q14790 (parent)
# chain: MDFSRNLYDIGEQLDSEDLASLKFLSLDYIPQRKQEPIKDALMLFQRLQEKRMLEESNLSFLKELLFRINRLDLLITYLNTRKEEMERELQTPGRAQISAYRVMLYQISEEVSRSELRSFKFLLQEEISKCKLDDDMNLLDIFIEMEKRVILGEGKLDILKRVCAQINKSLLKIINDYEEFSKERSSSLEGSPDEFSNGEELCGVMTISDSPREQDSESQTLDKVYQMKSKPRGYCLIINNHNFAKAREKVPKLHSIRDRNGTHLDAGALTTTFEELHFEIKPHDDCTVEQIYEILKIYQLMDHSNMDCFICCILSHGDKGIIYGTDGQEAPIYELTSQFTGLKCPSLAGKPKVFFIQACQGDNYQKGIPVETDSEEQPYLEMDLSSPQTRYIPDEADFLLGMATVNNCVSYRNPAEGTWYIQSLCQSLRERCPRGDDILTILTEVNYEVSNKDDKKNMGKQMPQPTFTLRKKLVFPSD
# Variants of: B1
# Settings: with bcl2_human BCL2, P10415
# bcl2_human BCL2, P10415, sequence (P10415 whole entry): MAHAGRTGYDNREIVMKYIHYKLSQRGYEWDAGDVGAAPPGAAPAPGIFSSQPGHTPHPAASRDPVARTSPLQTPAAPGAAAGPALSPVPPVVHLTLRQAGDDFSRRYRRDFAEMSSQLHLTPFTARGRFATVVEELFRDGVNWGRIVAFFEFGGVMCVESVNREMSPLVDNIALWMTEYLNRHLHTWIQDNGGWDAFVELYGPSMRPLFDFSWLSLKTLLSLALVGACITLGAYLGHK
row,effect of a mutation on the interaction,Variant
1,increasing interaction,C360S
